From publication PMC6220978, “Induced conformational changes activate the peptidoglycan synthase PBP1B” (Molecular Microbiology, 2018)

Columns and labels:
Experiment in all cases: SPR; PBP1B versions immobilised to the chip surface; CpoB versions injected from either 3.9 nM to 2 μM or from 78 nM to 40 μM; apparent KD by non-linear regression, at least three independent experiments
Conditions in all cases: both partners purified
PBP1B E341A = target: T1, PBP1B E341A (E. coli, UniProt P02919 46-844, E341A)
T1 construct: PBP1B, E. coli, residues 46-844, made by mutagenesis of pDML924; source: E. coli BL21(DE3), purified (membrane extract, HisTrap, thrombin, HiTrap SP ion exchange)
T1 sequence (looked up): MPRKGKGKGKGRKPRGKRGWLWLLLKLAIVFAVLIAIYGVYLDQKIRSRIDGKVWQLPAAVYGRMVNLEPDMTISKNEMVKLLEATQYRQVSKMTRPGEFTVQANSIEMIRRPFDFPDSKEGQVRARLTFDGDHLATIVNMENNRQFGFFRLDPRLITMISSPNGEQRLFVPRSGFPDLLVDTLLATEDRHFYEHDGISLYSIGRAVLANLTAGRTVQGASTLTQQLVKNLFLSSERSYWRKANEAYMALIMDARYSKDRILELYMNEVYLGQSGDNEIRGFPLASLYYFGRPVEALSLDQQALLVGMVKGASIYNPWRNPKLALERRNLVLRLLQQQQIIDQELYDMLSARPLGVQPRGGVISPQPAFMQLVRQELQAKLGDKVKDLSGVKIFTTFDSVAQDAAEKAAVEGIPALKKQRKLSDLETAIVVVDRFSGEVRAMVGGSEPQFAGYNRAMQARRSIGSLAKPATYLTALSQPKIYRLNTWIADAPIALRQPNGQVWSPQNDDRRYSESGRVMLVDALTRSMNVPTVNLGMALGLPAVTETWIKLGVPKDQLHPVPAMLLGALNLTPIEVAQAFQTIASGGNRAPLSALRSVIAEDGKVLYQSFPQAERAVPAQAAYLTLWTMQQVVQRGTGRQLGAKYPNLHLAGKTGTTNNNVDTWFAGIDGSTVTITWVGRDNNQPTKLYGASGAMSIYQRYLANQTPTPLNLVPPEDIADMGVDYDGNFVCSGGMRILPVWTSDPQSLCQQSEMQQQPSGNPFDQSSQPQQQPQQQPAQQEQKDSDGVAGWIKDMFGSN

PBP1B R109G = target: T2, PBP1B R109G (E. coli, UniProt P02919 46-844, R109G)
T2 construct: PBP1B, E. coli, residues 46-844, made by mutagenesis of pDML924; source: E. coli BL21(DE3), purified (membrane extract, HisTrap, thrombin, HiTrap SP ion exchange)
T2 sequence (looked up): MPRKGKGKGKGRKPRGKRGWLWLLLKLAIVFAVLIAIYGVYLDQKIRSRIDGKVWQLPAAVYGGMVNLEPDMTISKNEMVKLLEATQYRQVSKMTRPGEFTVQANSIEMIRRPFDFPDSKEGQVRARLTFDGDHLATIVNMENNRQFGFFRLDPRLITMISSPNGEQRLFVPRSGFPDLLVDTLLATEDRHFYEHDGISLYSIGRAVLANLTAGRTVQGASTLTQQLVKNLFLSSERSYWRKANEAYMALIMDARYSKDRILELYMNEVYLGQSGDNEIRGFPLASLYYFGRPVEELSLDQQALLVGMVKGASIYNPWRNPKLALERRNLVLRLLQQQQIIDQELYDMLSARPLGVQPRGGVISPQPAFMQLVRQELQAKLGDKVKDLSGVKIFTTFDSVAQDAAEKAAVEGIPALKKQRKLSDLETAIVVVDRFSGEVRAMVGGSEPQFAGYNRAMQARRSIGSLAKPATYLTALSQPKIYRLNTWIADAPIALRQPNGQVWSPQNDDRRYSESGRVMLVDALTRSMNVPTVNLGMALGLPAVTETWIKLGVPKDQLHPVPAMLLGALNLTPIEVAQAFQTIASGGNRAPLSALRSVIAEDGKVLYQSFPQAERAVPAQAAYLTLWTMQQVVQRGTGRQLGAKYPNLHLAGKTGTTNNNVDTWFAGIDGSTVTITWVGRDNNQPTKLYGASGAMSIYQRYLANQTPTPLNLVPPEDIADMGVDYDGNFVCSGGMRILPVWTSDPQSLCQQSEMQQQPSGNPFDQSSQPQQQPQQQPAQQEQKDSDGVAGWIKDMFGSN

PBP1B N112G = target: T3, PBP1B N112G (E. coli, UniProt P02919 46-844, N112G)
T3 construct: PBP1B, E. coli, residues 46-844, made by mutagenesis of pDML924; source: E. coli BL21(DE3), purified (membrane extract, HisTrap, thrombin, HiTrap SP ion exchange)
T3 sequence (looked up): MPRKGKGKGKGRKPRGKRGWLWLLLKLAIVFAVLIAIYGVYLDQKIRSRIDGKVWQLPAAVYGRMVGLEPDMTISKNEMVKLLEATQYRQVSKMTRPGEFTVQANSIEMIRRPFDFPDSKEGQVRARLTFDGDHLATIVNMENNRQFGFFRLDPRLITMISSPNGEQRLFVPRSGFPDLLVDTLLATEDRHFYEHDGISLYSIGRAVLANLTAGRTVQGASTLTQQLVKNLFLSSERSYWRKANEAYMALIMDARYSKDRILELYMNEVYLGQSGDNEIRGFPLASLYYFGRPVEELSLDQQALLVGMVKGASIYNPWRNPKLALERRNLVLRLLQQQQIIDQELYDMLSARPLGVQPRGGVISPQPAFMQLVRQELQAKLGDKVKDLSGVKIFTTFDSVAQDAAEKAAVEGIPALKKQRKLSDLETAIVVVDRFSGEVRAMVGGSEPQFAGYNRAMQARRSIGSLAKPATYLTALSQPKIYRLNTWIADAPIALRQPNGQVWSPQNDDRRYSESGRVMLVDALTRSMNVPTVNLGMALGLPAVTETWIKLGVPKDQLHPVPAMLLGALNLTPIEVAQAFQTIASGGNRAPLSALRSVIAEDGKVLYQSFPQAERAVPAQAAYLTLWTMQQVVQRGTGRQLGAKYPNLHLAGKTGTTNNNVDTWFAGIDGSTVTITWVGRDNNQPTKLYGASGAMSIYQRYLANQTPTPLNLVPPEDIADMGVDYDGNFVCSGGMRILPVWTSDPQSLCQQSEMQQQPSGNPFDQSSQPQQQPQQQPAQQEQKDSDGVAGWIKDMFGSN

Kd (PBP1B E341A): 77 nM | Kd (PBP1B R109G): 70 nM | Kd (PBP1B N112G): 89 nM
B1: CpoB (full length) (natural protein, E. coli, UniProt P45955 27-263, looked up)
chain: QAPISSVGSGSVEDRVTQLERISNAHSQLLTQLQQQLSDNQSDIDSLRGQIQENQYQLNQVVERQKQILLQIDSLSSGGAAAQSTSGDQSGAAASTTPTADAGTANAGAPVKSGNANTDYNAAIALVQDKSRQDDAMVAFQNFIKNYPDSTYLPNANYWLGQLNYNKGKKDDAAYYFASVVKNYPKSPKAADAMFKVGVIMQDKGDTAKAKAVYQQVISKYPGTDGAKQAQKRLNAM
notes: CpoB, E. coli; The coiled-coil construct begins at residue 27, so the purified 'full length' protein may lack the signal peptide (surmise); source: E. coli BL21(DE3), purified (HisTrap, Superdex 200), as in Gray et al. 2015
